# From patent US12679878B2, “CRF2 receptor agonists and their use in therapy” (SANOFI, priority 2020, dated 2026)
# Starred links: 1 amine or outer side, 2 acyl side, 3 side chain; linkers in the order of their positions; H or OH if unused. Non-standard residues stand in square brackets, D forms with d. Groups on a side chain read outwards from the residue. No end group written: not given here. *: point of attachment. C18 diacid = O=C(O)CCCCCCCCCCCCCCCCC(=O)*; γGlu = O=C(O)[C@H](CCC(=O)[*:2])N[*:1]; Palmitoyl = CCCCCCCCCCCCCCCC(=O)*; AEEA = NCCOCCOCC(=O)O; Aib = CC(C)(N)C(=O)O
# Target: human corticotropin-releasing factor 2α (CRF2 α receptor) (human), Q13324
# Assay: cell-based or functional assay
# Chain of human corticotropin-releasing factor 2α (CRF2 α receptor) (human), Q13324 (Q13324 20-411): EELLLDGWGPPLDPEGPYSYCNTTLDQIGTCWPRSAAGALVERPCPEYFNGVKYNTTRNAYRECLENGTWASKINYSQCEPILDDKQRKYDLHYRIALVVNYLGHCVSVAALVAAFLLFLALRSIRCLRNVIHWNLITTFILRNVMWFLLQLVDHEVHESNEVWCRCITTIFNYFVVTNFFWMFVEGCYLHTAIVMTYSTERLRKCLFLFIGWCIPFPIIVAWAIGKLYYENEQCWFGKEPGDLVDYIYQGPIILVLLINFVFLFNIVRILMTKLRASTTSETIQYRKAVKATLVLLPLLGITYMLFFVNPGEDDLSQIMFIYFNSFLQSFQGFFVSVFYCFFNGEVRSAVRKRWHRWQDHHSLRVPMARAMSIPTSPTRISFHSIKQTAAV
Binder,"EC50 [nM], 0% HSA","EC50 [nM], 0.1% HSA"
Ac-IVLSLD[dV]PIHLK([AEEA-AEEA-γGlu-C18 diacid])QILLEQERQK[Aib]QREQAEKNKQILEQV-NH2 [SEQ ID NO: 163],0.24 nM,3.91 nM
IVLSLD[dV]PTKLK([γGlu-Palmitoyl])QKLLKQERQR[Aib]EREQAEKNKRILERV-NH2 (N-terminus assumed; SMILES CCCCCCCCCCCCCCCC(=O)N[C@@H](CCC(=O)NCCCC[C@H](NC(=O)[C@H](CC(C)C)NC(=O)[C@H](CCCCN)NC(=O)[C@@H](NC(=O)[C@@H]1CCCN1C(=O)[C@H](NC(=O)[C@H](CC(=O)O)NC(=O)[C@H](CC(C)C)NC(=O)[C@H](CO)NC(=O)[C@H](CC(C)C)NC(=O)[C@@H](NC(=O)[C@@H](N)[C@@H](C)CC)C(C)C)C(C)C)[C@@H](C)O)C(=O)N[C@@H](CCC(N)=O)C(=O)N[C@@H](CCCCN)C(=O)N[C@@H](CC(C)C)C(=O)N[C@@H](CC(C)C)C(=O)N[C@@H](CCCCN)C(=O)N[C@@H](CCC(N)=O)C(=O)N[C@@H](CCC(=O)O)C(=O)N[C@@H](CCCNC(=N)N)C(=O)N[C@@H](CCC(N)=O)C(=O)N[C@@H](CCCNC(=N)N)C(=O)NC(C)(C)C(=O)N[C@@H](CCC(=O)O)C(=O)N[C@@H](CCCNC(=N)N)C(=O)N[C@@H](CCC(=O)O)C(=O)N[C@@H](CCC(N)=O)C(=O)N[C@@H](C)C(=O)N[C@@H](CCC(=O)O)C(=O)N[C@@H](CCCCN)C(=O)N[C@@H](CC(N)=O)C(=O)N[C@@H](CCCCN)C(=O)N[C@@H](CCCNC(=N)N)C(=O)N[C@H](C(=O)N[C@@H](CC(C)C)C(=O)N[C@@H](CCC(=O)O)C(=O)N[C@@H](CCCNC(=N)N)C(=O)N[C@H](C(N)=O)C(C)C)[C@@H](C)CC)C(=O)O) [SEQ ID NO: 19],0.01 nM,–
Ac-IVLSLD[dV]PIELK([AEEA-AEEA-γGlu-C18 diacid])QILLEQERQK[Aib]QREQAEKNKQILEQV-NH2 (SMILES CC[C@H](C)[C@H](NC(C)=O)C(=O)N[C@H](C(=O)N[C@@H](CC(C)C)C(=O)N[C@@H](CO)C(=O)N[C@@H](CC(C)C)C(=O)N[C@@H](CC(=O)O)C(=O)N[C@@H](C(=O)N1CCC[C@H]1C(=O)N[C@H](C(=O)N[C@@H](CCC(=O)O)C(=O)N[C@@H](CC(C)C)C(=O)N[C@@H](CCCCNC(=O)COCCOCCNC(=O)COCCOCCNC(=O)CC[C@H](NC(=O)CCCCCCCCCCCCCCCCC(=O)O)C(=O)O)C(=O)N[C@@H](CCC(N)=O)C(=O)N[C@H](C(=O)N[C@@H](CC(C)C)C(=O)N[C@@H](CC(C)C)C(=O)N[C@@H](CCC(=O)O)C(=O)N[C@@H](CCC(N)=O)C(=O)N[C@@H](CCC(=O)O)C(=O)N[C@@H](CCCNC(=N)N)C(=O)N[C@@H](CCC(N)=O)C(=O)N[C@@H](CCCCN)C(=O)NC(C)(C)C(=O)N[C@@H](CCC(N)=O)C(=O)N[C@@H](CCCNC(=N)N)C(=O)N[C@@H](CCC(=O)O)C(=O)N[C@@H](CCC(N)=O)C(=O)N[C@@H](C)C(=O)N[C@@H](CCC(=O)O)C(=O)N[C@@H](CCCCN)C(=O)N[C@@H](CC(N)=O)C(=O)N[C@@H](CCCCN)C(=O)N[C@@H](CCC(N)=O)C(=O)N[C@H](C(=O)N[C@@H](CC(C)C)C(=O)N[C@@H](CCC(=O)O)C(=O)N[C@@H](CCC(N)=O)C(=O)N[C@H](C(N)=O)C(C)C)[C@@H](C)CC)[C@@H](C)CC)[C@@H](C)CC)C(C)C)C(C)C) [SEQ ID NO: 162],2 nM,30.5 nM
Ac-IVLSLD[dV]PIGLK([AEEA-AEEA-γGlu-C18 diacid])QILLEQERQK[Aib]QREQAEKNKQILEQV-NH2 (SMILES CC[C@H](C)[C@H](NC(C)=O)C(=O)N[C@H](C(=O)N[C@@H](CC(C)C)C(=O)N[C@@H](CO)C(=O)N[C@@H](CC(C)C)C(=O)N[C@@H](CC(=O)O)C(=O)N[C@@H](C(=O)N1CCC[C@H]1C(=O)N[C@H](C(=O)NCC(=O)N[C@@H](CC(C)C)C(=O)N[C@@H](CCCCNC(=O)COCCOCCNC(=O)COCCOCCNC(=O)CC[C@H](NC(=O)CCCCCCCCCCCCCCCCC(=O)O)C(=O)O)C(=O)N[C@@H](CCC(N)=O)C(=O)N[C@H](C(=O)N[C@@H](CC(C)C)C(=O)N[C@@H](CC(C)C)C(=O)N[C@@H](CCC(=O)O)C(=O)N[C@@H](CCC(N)=O)C(=O)N[C@@H](CCC(=O)O)C(=O)N[C@@H](CCCNC(=N)N)C(=O)N[C@@H](CCC(N)=O)C(=O)N[C@@H](CCCCN)C(=O)NC(C)(C)C(=O)N[C@@H](CCC(N)=O)C(=O)N[C@@H](CCCNC(=N)N)C(=O)N[C@@H](CCC(=O)O)C(=O)N[C@@H](CCC(N)=O)C(=O)N[C@@H](C)C(=O)N[C@@H](CCC(=O)O)C(=O)N[C@@H](CCCCN)C(=O)N[C@@H](CC(N)=O)C(=O)N[C@@H](CCCCN)C(=O)N[C@@H](CCC(N)=O)C(=O)N[C@H](C(=O)N[C@@H](CC(C)C)C(=O)N[C@@H](CCC(=O)O)C(=O)N[C@@H](CCC(N)=O)C(=O)N[C@H](C(N)=O)C(C)C)[C@@H](C)CC)[C@@H](C)CC)[C@@H](C)CC)C(C)C)C(C)C) [SEQ ID NO: 164],0.69 nM,10.1 nM

# The next lines start with the values.
"EC50 [nM], 0% HSA","EC50 [nM], 0.1% HSA",Binder
0.9 nM,14 nM,Ac-IVLSLD[dV]PIKLK([AEEA-AEEA-γGlu-C18 diacid])QILLEQERQK[Aib]QREQAEKNEQILEQV-NH2 (SMILES CC[C@H](C)[C@H](NC(C)=O)C(=O)N[C@H](C(=O)N[C@@H](CC(C)C)C(=O)N[C@@H](CO)C(=O)N[C@@H](CC(C)C)C(=O)N[C@@H](CC(=O)O)C(=O)N[C@@H](C(=O)N1CCC[C@H]1C(=O)N[C@H](C(=O)N[C@@H](CCCCN)C(=O)N[C@@H](CC(C)C)C(=O)N[C@@H](CCCCNC(=O)COCCOCCNC(=O)COCCOCCNC(=O)CC[C@H](NC(=O)CCCCCCCCCCCCCCCCC(=O)O)C(=O)O)C(=O)N[C@@H](CCC(N)=O)C(=O)N[C@H](C(=O)N[C@@H](CC(C)C)C(=O)N[C@@H](CC(C)C)C(=O)N[C@@H](CCC(=O)O)C(=O)N[C@@H](CCC(N)=O)C(=O)N[C@@H](CCC(=O)O)C(=O)N[C@@H](CCCNC(=N)N)C(=O)N[C@@H](CCC(N)=O)C(=O)N[C@@H](CCCCN)C(=O)NC(C)(C)C(=O)N[C@@H](CCC(N)=O)C(=O)N[C@@H](CCCNC(=N)N)C(=O)N[C@@H](CCC(=O)O)C(=O)N[C@@H](CCC(N)=O)C(=O)N[C@@H](C)C(=O)N[C@@H](CCC(=O)O)C(=O)N[C@@H](CCCCN)C(=O)N[C@@H](CC(N)=O)C(=O)N[C@@H](CCC(=O)O)C(=O)N[C@@H](CCC(N)=O)C(=O)N[C@H](C(=O)N[C@@H](CC(C)C)C(=O)N[C@@H](CCC(=O)O)C(=O)N[C@@H](CCC(N)=O)C(=O)N[C@H](C(N)=O)C(C)C)[C@@H](C)CC)[C@@H](C)CC)[C@@H](C)CC)C(C)C)C(C)C) [SEQ ID NO: 166]
0.28 nM,5.06 nM,Ac-IVLSLD[dV]PIKLK([AEEA-AEEA-γGlu-C18 diacid])QILLEQARQK[Aib]QREQAEKNEQILEQV-NH2 (SMILES CC[C@H](C)[C@H](NC(C)=O)C(=O)N[C@H](C(=O)N[C@@H](CC(C)C)C(=O)N[C@@H](CO)C(=O)N[C@@H](CC(C)C)C(=O)N[C@@H](CC(=O)O)C(=O)N[C@@H](C(=O)N1CCC[C@H]1C(=O)N[C@H](C(=O)N[C@@H](CCCCN)C(=O)N[C@@H](CC(C)C)C(=O)N[C@@H](CCCCNC(=O)COCCOCCNC(=O)COCCOCCNC(=O)CC[C@H](NC(=O)CCCCCCCCCCCCCCCCC(=O)O)C(=O)O)C(=O)N[C@@H](CCC(N)=O)C(=O)N[C@H](C(=O)N[C@@H](CC(C)C)C(=O)N[C@@H](CC(C)C)C(=O)N[C@@H](CCC(=O)O)C(=O)N[C@@H](CCC(N)=O)C(=O)N[C@@H](C)C(=O)N[C@@H](CCCNC(=N)N)C(=O)N[C@@H](CCC(N)=O)C(=O)N[C@@H](CCCCN)C(=O)NC(C)(C)C(=O)N[C@@H](CCC(N)=O)C(=O)N[C@@H](CCCNC(=N)N)C(=O)N[C@@H](CCC(=O)O)C(=O)N[C@@H](CCC(N)=O)C(=O)N[C@@H](C)C(=O)N[C@@H](CCC(=O)O)C(=O)N[C@@H](CCCCN)C(=O)N[C@@H](CC(N)=O)C(=O)N[C@@H](CCC(=O)O)C(=O)N[C@@H](CCC(N)=O)C(=O)N[C@H](C(=O)N[C@@H](CC(C)C)C(=O)N[C@@H](CCC(=O)O)C(=O)N[C@@H](CCC(N)=O)C(=O)N[C@H](C(N)=O)C(C)C)[C@@H](C)CC)[C@@H](C)CC)[C@@H](C)CC)C(C)C)C(C)C) [SEQ ID NO: 165]
3.95 nM,74.4 nM,Ac-IVLSLD[dV]PIGLK([AEEA-AEEA-γGlu-C18 diacid])QILLEQERQK[Aib]QREQAEKNEQILEQV-NH2 (SMILES CC[C@H](C)[C@H](NC(C)=O)C(=O)N[C@H](C(=O)N[C@@H](CC(C)C)C(=O)N[C@@H](CO)C(=O)N[C@@H](CC(C)C)C(=O)N[C@@H](CC(=O)O)C(=O)N[C@@H](C(=O)N1CCC[C@H]1C(=O)N[C@H](C(=O)NCC(=O)N[C@@H](CC(C)C)C(=O)N[C@@H](CCCCNC(=O)COCCOCCNC(=O)COCCOCCNC(=O)CC[C@H](NC(=O)CCCCCCCCCCCCCCCCC(=O)O)C(=O)O)C(=O)N[C@@H](CCC(N)=O)C(=O)N[C@H](C(=O)N[C@@H](CC(C)C)C(=O)N[C@@H](CC(C)C)C(=O)N[C@@H](CCC(=O)O)C(=O)N[C@@H](CCC(N)=O)C(=O)N[C@@H](CCC(=O)O)C(=O)N[C@@H](CCCNC(=N)N)C(=O)N[C@@H](CCC(N)=O)C(=O)N[C@@H](CCCCN)C(=O)NC(C)(C)C(=O)N[C@@H](CCC(N)=O)C(=O)N[C@@H](CCCNC(=N)N)C(=O)N[C@@H](CCC(=O)O)C(=O)N[C@@H](CCC(N)=O)C(=O)N[C@@H](C)C(=O)N[C@@H](CCC(=O)O)C(=O)N[C@@H](CCCCN)C(=O)N[C@@H](CC(N)=O)C(=O)N[C@@H](CCC(=O)O)C(=O)N[C@@H](CCC(N)=O)C(=O)N[C@H](C(=O)N[C@@H](CC(C)C)C(=O)N[C@@H](CCC(=O)O)C(=O)N[C@@H](CCC(N)=O)C(=O)N[C@H](C(N)=O)C(C)C)[C@@H](C)CC)[C@@H](C)CC)[C@@H](C)CC)C(C)C)C(C)C) [SEQ ID NO: 167]
